The numbers were not newly measured in PMC3185792, which cites them from elsewhere.

Read-outs that look alike come from different tables or passages of the source.

Data set [1] has as its target ICAM (Homo sapiens) (UniProt P05362).
Data set [2] shares this target. The source holds these as a separate data set.

Sequence of ICAM (Homo sapiens) (P05362 28-480): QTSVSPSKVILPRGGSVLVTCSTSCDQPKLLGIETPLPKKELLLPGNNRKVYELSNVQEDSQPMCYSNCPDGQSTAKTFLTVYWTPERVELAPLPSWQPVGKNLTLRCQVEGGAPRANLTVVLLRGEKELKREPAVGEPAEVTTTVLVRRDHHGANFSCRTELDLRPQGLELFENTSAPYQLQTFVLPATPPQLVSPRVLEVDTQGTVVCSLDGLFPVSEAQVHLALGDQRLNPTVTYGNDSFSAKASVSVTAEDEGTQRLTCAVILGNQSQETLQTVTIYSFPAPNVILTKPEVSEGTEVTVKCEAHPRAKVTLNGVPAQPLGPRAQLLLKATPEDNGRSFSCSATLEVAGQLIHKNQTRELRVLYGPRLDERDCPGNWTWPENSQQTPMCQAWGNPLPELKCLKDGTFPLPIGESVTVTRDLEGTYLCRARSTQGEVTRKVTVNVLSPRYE
Sequence of LFA-1 integrin (closed conformation) (P20701 26-1090): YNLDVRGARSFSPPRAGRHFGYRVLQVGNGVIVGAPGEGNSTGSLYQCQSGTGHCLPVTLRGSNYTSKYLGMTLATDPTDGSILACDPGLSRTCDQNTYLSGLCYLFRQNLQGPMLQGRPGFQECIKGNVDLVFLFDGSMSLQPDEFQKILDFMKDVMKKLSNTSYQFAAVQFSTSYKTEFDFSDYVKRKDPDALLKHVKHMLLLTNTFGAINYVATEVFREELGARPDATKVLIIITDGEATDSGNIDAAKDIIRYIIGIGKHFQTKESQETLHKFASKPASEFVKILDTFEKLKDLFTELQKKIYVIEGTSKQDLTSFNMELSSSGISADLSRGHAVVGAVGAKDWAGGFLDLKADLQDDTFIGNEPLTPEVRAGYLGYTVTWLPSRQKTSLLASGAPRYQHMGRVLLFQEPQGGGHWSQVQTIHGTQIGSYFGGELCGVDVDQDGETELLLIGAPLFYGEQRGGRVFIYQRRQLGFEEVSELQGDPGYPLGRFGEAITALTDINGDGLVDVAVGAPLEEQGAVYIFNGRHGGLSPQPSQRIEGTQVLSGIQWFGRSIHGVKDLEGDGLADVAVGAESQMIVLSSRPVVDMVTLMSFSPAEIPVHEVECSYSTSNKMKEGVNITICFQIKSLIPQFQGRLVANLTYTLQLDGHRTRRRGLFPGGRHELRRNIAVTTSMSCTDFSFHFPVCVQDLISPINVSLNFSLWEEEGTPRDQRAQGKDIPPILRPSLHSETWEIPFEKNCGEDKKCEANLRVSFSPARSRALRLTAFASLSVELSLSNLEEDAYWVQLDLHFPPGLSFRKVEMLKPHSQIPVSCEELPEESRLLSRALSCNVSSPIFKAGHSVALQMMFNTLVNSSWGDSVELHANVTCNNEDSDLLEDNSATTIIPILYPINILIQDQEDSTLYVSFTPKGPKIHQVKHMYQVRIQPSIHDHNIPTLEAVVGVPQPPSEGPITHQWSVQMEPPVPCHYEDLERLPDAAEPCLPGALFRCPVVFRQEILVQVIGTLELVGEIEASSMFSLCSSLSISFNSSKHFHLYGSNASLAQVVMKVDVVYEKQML
Sequence of LFA-1 integrin (closed conformation) (P05107 23-700, further chain): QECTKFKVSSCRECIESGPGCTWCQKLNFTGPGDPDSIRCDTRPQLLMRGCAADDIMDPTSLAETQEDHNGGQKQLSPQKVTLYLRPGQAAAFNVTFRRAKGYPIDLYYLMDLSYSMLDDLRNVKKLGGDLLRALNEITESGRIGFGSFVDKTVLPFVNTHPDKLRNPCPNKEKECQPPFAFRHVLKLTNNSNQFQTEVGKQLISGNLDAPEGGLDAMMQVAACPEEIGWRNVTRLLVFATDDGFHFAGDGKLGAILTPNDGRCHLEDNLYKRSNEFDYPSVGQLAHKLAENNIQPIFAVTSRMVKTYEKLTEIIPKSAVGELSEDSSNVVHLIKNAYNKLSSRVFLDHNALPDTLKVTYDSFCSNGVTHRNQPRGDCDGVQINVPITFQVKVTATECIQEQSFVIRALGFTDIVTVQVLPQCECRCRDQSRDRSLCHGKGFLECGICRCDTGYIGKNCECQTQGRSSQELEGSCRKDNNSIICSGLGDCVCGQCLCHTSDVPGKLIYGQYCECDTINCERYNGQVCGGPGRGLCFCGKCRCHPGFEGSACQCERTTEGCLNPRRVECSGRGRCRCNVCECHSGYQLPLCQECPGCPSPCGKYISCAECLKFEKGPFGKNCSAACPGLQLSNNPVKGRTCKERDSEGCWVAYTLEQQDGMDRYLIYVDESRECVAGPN
Sequence of LFA-1 integrin (open conformation) (P20701 26-1090): as the sequence (P20701 26-1090) above
Sequence of LFA-1 integrin (open conformation) (P05107 23-700, further chain): as the sequence (P05107 23-700, further chain) above

For the substance “LFA-1 integrin (open conformation) (from UniProt P20701)”, the Kd in data set [1] is 0.4 µM. Take “LFA-1 integrin (closed conformation) (from UniProt P20701)”: in data set [2], the Kd is 100 µM.
